Test results published in the DeepSol protein solubility set.

Test: soluble on expression in E. coli; label from the status in PepcDB or PDB records

Soluble on expression in E. coli, not soluble:
MGSDKIHHHHHHMELKLERHPANPILEPSPYFLWESRFVFNPAVVYDGELFHLLYRAQGEDMVSRIGYAVSTDGIHFNKFEKPVFAPKSDDELYGVEDPRITKIGDEYYMVYTAYSPRGVRIAMASTKNFITWKRYGVVIPEVDNKDAALFPEKINGKYVMFHRIPPDMWLAFSDDLVHWDNFVKIASPRPGMWDDLKIGVGAPPIKTEYGWLVLYHGVQNTGTSRPIYRLGFMLLDLEDPTKVIKRSKEPILEPEEDWEKFGGVPNVVFSDAMIEYNGYYYVYYGAADNCIALATIPVEKVMKWCRE
MGSDKIHHHHHHMELLNSMSKSLDQLLSLVNHSEIASIKATLSKIIEVIHNPESSVMDLKNLIEIDPPLAANVLRRANSAFYGMRRGIHSIMDAIIFIGFDAVKELTLNQKFFELFQKNGVEIHGYSRRVLWEHSIGVALCGKLIYRREFRKNGGDMYTAGLIHDIGIIVEDQFLHAELLSILADKEEHERDLHSAEADVLGYCHEDIGKRLAEDWNFPEELCLVLGEAERPETSEGPRLLLADTLYVANCACQLRKVGFSELGRLDRPAYEDCLNRLRIKERALDFIMDEVNAQIALMKNDGWF
MGSDKIHHHHHHMELNIPLVLQNKTPIYLQIYEYMKREISHGSLCAGTRLPSHRNLAMQLNVSRITVESAYQQLLAEGYVESKPKRGIFVAEVDIDVIQKKQQIVSNSANNKEKEQYDYDCSQGLIDQKAFPITNWKRALHETLFQYENELFAKEDPQGELVLREHISKYLYHARGVHSSPDQIIIGAGTQPLLWLLLQLLGSKKEYGIENPGFHRIPAMIQSSGLPVHPIPLDDKGIHISALRESGSNVAYVTPSHQFPLGIIMPLSRRLELLKWANDCKGYIVEDDYDGEFRYIGKPIPSLQGLDSNERVIYMGTFSKSFLPSLRMGYIVLPPHLLKTYKELGGMYKQTVSTMQQLTFATFIQSGDWERHINRSRTLYKRKHISLIKSITNEMGNNVHILGEQSGLHIVLHVHNGMNEQELIHAAAKQRIKLYPLSTYDSVHNVREESYVLLGFGSIPENRIETVVQLLKKAWFPK
MGSDKIHHHHHHMEMIMRPDRSLFIVEDDATFAKTLKRSFEKRDYDVVVCHGREDLLGALETAVPAYAVVDLKLGARGSGLECVKLLSARDTSMRIVVLTGFASIATAVEAIKLGACHYLAKPANTDDIEAAFGRAEGDVSVSLSSRPTSIKNLEWERIHETLVETGFNISETARRLGLHRRTLARKLEKRVVR
MGSDKIHHHHHHMEMLEEHRCFEGWQQRWRHDSSTLNCPMTFSIFLPPPRDHTPPPVLYWLSGLTCNDENFTTKAGAQRVAAELGIVLVMPDTSPRGEKVANDDGYDLGQGAGFYLNATQPPWATHYRMYDYLRDELPALVQSQFNVSDRCAISGHSMGGHGALIMALKNPGKYTSVSAFAPIVNPCSVPWGIKAFSSYLGEDKNAWLEWDSCALMYASNAQDAIPTLIDQGDNDQFLADQLQPAVLAEAARQKAWPMTLRIQPGYDHSYYFIASFIEDHLRFHAQYLLK
MGSDKIHHHHHHMENIVELINVTKTFKDFSINKMDLQVKKGFVTGFIGANGAGKSTTIKMMMNLLKPDDGEVKLFGMDYTTHEKAIKERIGFVYDGNVFFEGLNLKDIKHIVGPAYKRWDDTLFYQYVDKFELPLNKAIKTFSKGMQMKASLAIALSHHAELIIMDEPTAGLDPIFRRELLDILQELMIDNDRTIFFSTHITTDLDRIADYIAFMQGGNLVFNQSIHDIDENYALVKGGLDLLDKDTEKAFVHVRRASTGFEALTNNLSAVKNIFGDTVIIERATLEDIMYYMKGGVHYV
MGSDKIHHHHHHMEQNRFKKETKTCSASWPRAPQSTLCATDRLELTYDVYTSAERQRRSRTATRLNLVFLHGSGMSKVVWEYYLPRLVAADAEGNYAIDKVLLIDQVNHGDSAVRNRGRLGTNFNWIDGARDVLKIATCELGSIDSHPALNVVIGHSMGGFQALACDVLQPNLFHLLILIEPVVITRKAIGAGRPGLPPDSPQIPENLYNSLRLKTCDHFANESEYVKYMRNGSFFTNAHSQILQNIIDFERTKASGDDEDGGPVRTKMEQAQNLLCYMNMQTFAPFLISNVKFVRKRTIHIVGARSNWCPPQNQLFLQKTLQNYHLDVIPGGSHLVNVEAPDLVIERINHHIHEFVLTSPLQSSHIPQLTLEERAVMFDRAFDSFKNEALVKTTKQKL
MGSDKIHHHHHHMESAIDKHLVCPRTLSRRVADDYQPPFPMYVARAAEDLSQVVMGYFGVQYRGADQRSVALAALRRIVADFDAPDGPGNHDLTQHTDNQGYDNLIAVGYWRDPDAYARWIASPAVAEWWASDARLADGIGYFREIVAPRAEQFETLYAFTNDFPGVGSIMDGVSGEIEEHGYWGSMRDRFPISQTDWMHADGELRIVAGDPARGGRVVVLAHDNIALIRSGQDWRAAEDDERRLYLDEIEPTLRSGMDFLRDNGVDVGCYSNRYVRSIDLDGNLLDESYNIGHWRSLDRLERWAESHPTHLRIFVTFFRVVTGLSKLRLYHEVSVFDAKHQVYEYVNCHPTTGMMRDAVAR
MGSDKIHHHHHHMETIKAIHTRHSVRAFKDDPIEPQLLTMIVTDAQQTPSWGNSQPWQVYIATGHALTNIKQHYATAAEQGIAEDADLAKVHRGDFSAFASQNMGHWVGTFRPVIDSDPTTYWDSRANLYRAPAIAYLVLDANPNSWSIYDLGAFSQTLMLAATARGVQSVPSYELVKYPAIVRNALGMPANKVVAMGIALGYEKPEKPLNQFRTDRVATPQVLHIIN
MGSDKIHHHHHHMEVAMEKIYYPRTIDSYLLEWKNERAHKPLLLRGARQVGKSSAVRQLGKTFKYFMEVNFERDKEIISVFTGNLKPKEITSRLAAFYGIPVVPGETLLFLDEIQACTPAIHSLWFFYEDYPELHVVAAGSLLEFALKKMAFFGVGRVRSLFMYPMSFDEFLAATGHAGWIEAKRNASPAEPLFEALHGKLVESFRNYLMVGGMPESVQNWVETEDYLKCQQVQDDIMLAYEDDFSKYEEKADPMLLRQTLRSVAQQIGGKFVYSNVQGNYRSEKIKSALELLKDAGLVRPAVHTAANGIPLGAEINEKFVKYIFLDSGLLLRLLGLENTGGTSEMSRLVLVGAASDLVNKGHITEMVAGLELLKYNTPVQRHDLYYWQNLSRGAQAEVDYVIVKDMRVVPLEVKAGTTGSMKSMYQFMEEKHLTYGIRTSLENFGKLEKADIIPLYALSNLYK
MGSDKIHHHHHHMEVDDVWDDTELIKMYDESLQEISKNETSAKITSRKFKGEDGKMYTWKVGGKCMAPYEENGEVTDYPATIDTIGGADNLEVGVTFIYYGGQAVVQMKDLWLNEEAIADAVKAENDLQKTKKTSTVNSVAHSNSKSTSSAPNTSMPFPSFAPPVPPNIIAMAPVNQKEAMNSMLMSWYMSGYHTGYYQALADQKNVQN
MGSDKIHHHHHHMEVVGRSRAKAIIETHLNDSLVYFSDHVRILKCNPYCTGVTYLKEHGVYQWIFQVNDPRENPITAVFFVTQNEEHLDSSRTVPAGPVSEEESFPDSAVSGRCIQWVNAPQVPDVPLKEKNTFVGQANTRICLYPLEDRRTEVHFETDITLDFELSFPLNLMPEGILKFMTEAVMSKIMQQATESMLCQVQSDLCCCTTAELDASGGKV
MGSDKIHHHHHHMEYVNIKLPYDKKQITAKIYKRNLAGILVSKSENYKNSLSEKELVEKSLDNPIASPKLEELVKGKKNIVLISSDHTRPVPSKIITPILLRRIRSVEPNANIIILVATGFHRPSTHEELVDKYGEEIVKRENIVMHVSTDDSAMVQIGTLPSGGPCIINKIAAEADLLIAEGFIESHFFAGFSGGRKSVLPGIASYKTIMANHCGEFINSNKARTGNIKCNPIHEDMVYAARTAGLKFILNVVLDGNKKIIGSFAGDVEKAHETGCDFVKDLARVKKVPCDIAVSTNGGYPLDQNIYQAVKGMTAAEATNKENGVIIMVAGCRDGHGGEGFYKNLANVKTPEEFLEKAIHTERQKTIPDQWTSQILARILSKHHVIMVSDLVDQKLICGMHMELVSNFEEALERAYKIEGKDAKVTVIPDGLSVIVE
MGSDKIHHHHHHMFGLPGKKSSAVLGVDVSSSSVKLLELSKHGDRYKVESYAVEPLPANAVVEKNITDVEAVGEVLKRVASKSRTSVKQVAVAVSGSAVITKVIQMDGGLNEFEMEDQIALEADQYIPYPLDEVAIDFEVQGPSESNPDQVDVLLAACRKENVDIREDALEIAGLTTKIVDVEAYALERAYSLIEPQLDSQGEELVVAIVDIGATMTTLSVLAEGKTVYTREQIFGGKQLTEEIQRRYGLSLEEAGLAKKQGGLPDDYNEEVLTPFREAVVQQVARALQFFFGASQYNAVDYVVLAGGTASIQGLTEMVEEKTGTPTLVANPFANMAVGSRVNASALSNDAPSLMIACGLAMRSFD
MGSDKIHHHHHHMFHPIEEALDALKKGEVIIVVDDEDRENEGDFVALAEHATPEVINFMATHGRGLICTPLSEEIADRLDLHPMVEHNTDSHHTAFTVSIDHRETKTGISAQERSFTVQALLDSKSVPSDFQRPGHIFPLIAKKGGVLKRAGHTEAAVDLAEACGSPGAGVICEIMNEDGTMARVPELIEIAKKHQLKMITIKDLIQYRYNLTTLVEREVDITLPTDFGTFKVYGYTNEVDGKEHVAFVMGDVPFGEEPVLVRVHSECLTGDVFGSHRCDCGPQLHAALNQIAAEGRGVLLYLRQEGRGIGLINKLKAYKLQEQGYDTVEANEALGFLPDLRNYGIGAQILRDLGVRNMKLLTNNPRKIAGLEGYGLSISERVPLQMEAKEHNKKYLQTKMNKLGHLLHF
MGSDKIHHHHHHMFKIDRLRFGTAGIPISTPKPSTIAGIERVRELGLDAMELEFVRGINIKPELAKKIKYVAEKNDIVLTAHAPYYINLNAKEKEKVEASKRRIIQSAERLYEAGGWSVVFHAGYYLKQPKESVYQKILSALKEIQKELMDKGIKVWLRPELTGKPTQFGDLKELVKLSQELELVLPAIDFAHAHARNKGKCNTEEEWREMLALIENELGREALDNMHIHISGIEYGEKGEKRHLNLEESDLKWEDLLKVLKEFRVKGVIISESPNIEGDAILMKKKWEELKI
MGSDKIHHHHHHMFKTIHPLSVARHGKLRLKPVSDYRFAAQEAVIGLVGAEIHKAIHAFPIAFLRSAHAGGTSCQMVGLLSVTPGQNLLVSPDGRWLGDYIPAALRAYPFVLARSQEDADTRLPCLDEDCGLLSESEGQPLFSEDGQLSDFSRRIIDFLTATERNREATQKGVDVLEKAQLFTPWSLQVVIQKQTKAIEGFHVIDETKLNQLDDETWLALRRAGVLPLVYGHLLSLNRTDLLGQLSGLQAQLAQQLTARPKLDDMLDFGDESILQF
MGSDKIHHHHHHMFNNHEIDTILSTLRMEADPSLHPLFEQFEKFYEEKLWFQLSESLTKFFDDAKSTPLRLRLYDNFVSKFYDKINQLSVVKYLLASLKDSKDFDESLKYLDDLKAQFQELDSKKQRNNGSKDHGDGILLIDSEIARTYLLKNDLVKARDLLDDLEKTLDKKDSIPLRITNSFYSTNSQYFKFKNDFNSFYYTSLLYLSTLEPSTSITLAERQQLAYDLSISALLGDKIYNFGELLHHPIMETIVNDSNYDWLFQLLNALTVGDFDKFDSLIKVQISKIPILAQHESFLRQKICLMTLIETVFVKNIRMLSFEDISKATHLPKDNVEHLVMRAISLGLLKGSIDQVNELVTISWVQPRIISGDQITKMKDRLVEWNDQVEKLGKKMEARGQSIWV
